Tests used:
[1] = test system: MS2 coat protein; assay: apparent KD of MS2 coat protein; higher = weaker reporter binding; conditions: Eterna round: R101
Protocol: (§1)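 RNA-MaP: designed FMN/MS2 RNA switches (84 nt design region) are transcribed on-chip within common flanks and titrated with SNAP-549-labelled MS2 coat protein (about 1-3000 nM) in 100 mM Tris pH 7.5, 80 mM KCl, 4 mM MgCl2, without or with 200 uM FMN. Median apparent KD per design; activation ratio = KD,OFF / KD,ON.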

[2] = test system: MS2 coat protein; assay: apparent KD of MS2 coat protein; designed switch direction (-1 OFF switch, 1 ON switch): -1; higher = weaker reporter binding; conditions: Eterna round: R98
Protocol: as §1

[3] = test system: MS2 coat protein; assay: apparent KD of MS2 coat protein; designed switch direction (-1 OFF switch, 1 ON switch): 1; higher = weaker reporter binding; conditions: Eterna round: R98
Protocol: as §1

Sequence | apparent KD of MS2 coat protein ([1]; input ligand: FMN 200 uM) [µM] | apparent KD of MS2 coat protein ([1]; input ligand: none) [µM] | further results
AAAGAUUUUUAAGGAUAUCAGUGGCAAAGCCACUGAGAAGGUGAGGAUCACCCAUCUACGUGACCCUGGAAACAGGGUCACGAA [#SharedSequence - ExNG1-16] (puzzle (switch architecture): Exclusion NG 1) | 0.0969 | 0.0567 | –
AAAGAUUUUUAAGGAUAUGACUCCGAAACGGAGUCAGAAGGUGAGGAUCACCCACCUAGCUCAGGGUCGAAAGACCCUGAGCAA [#SharedSequence - ExNG1-13] (puzzle (switch architecture): Exclusion NG 1) | 0.00948 | 0.00902 | –
ACAGGUCGUGAGAAGGCGGGUGGCACCGUCGAAAGACGGUGCAAUUAAAAUCUUCGAGGAUCACCCGAGGAUAUCACGACCUGA [#SharedSequence - IExNG2: 17] (puzzle (switch architecture): Inverted Exclusion NG 2) | 0.0286 | 0.0559 | –
AGACCUGCUCAGAAGGCGGAUACGAGGCUGGAAACAGCCUCGUAAUUAAAUCUUCGAGGAUCACCCGAGGAUAUGAGCAGGUCA [#SharedSequence - IExNG2: 13] (puzzle (switch architecture): Inverted Exclusion NG 2) | 0.0284 | 0.0103 | –
AGAGCUGCUCAGAAGGAGGAUCACCCUUUCGAAAGAAAUACGGAGGCUGAAAAGCCUCCGAAAUUCUAGGAUAUGAGCAGCUCA [#SharedSequence - IExNG2: 7] (puzzle (switch architecture): Inverted Exclusion NG 2) | 0.133 | 0.167 | –
CCAUAAAAGAUCCAAAAUUACAACAUGAGGAUCACCCAUGUGCAGGAUAUCGUGAAAGUAAAAUACGAGAAGGGCAAGAACUGC [salish99_ExNG3_r2_004] | – | – | apparent KD of MS2 coat protein ([2]; input ligand: FMN 200 uM): 0.425 µM; apparent KD of MS2 coat protein ([2]; input ligand: none): 0.43 µM
CCUGCACUUCAAGGAUAUCCAGUCGAAACGACUGGAGAAGGUGAGGAUCACCCAUCUAGCCUGACGAAAGUCAGGCAUGCAGGA [#SharedSequence - ExNG1-7] (puzzle (switch architecture): Exclusion NG 1) | 0.101 | 0.0904 | –
CCUGCACUUCAAGGAUAUCCAGUCGUUUCGACUGGAGAAGGUGAGGAUCACCCACCUAGCCUGACGUUUGUCAGGCAUGCAGGU [#AddUracilToBrourdLoops 3 - Jieux - Exclusion NG1] (puzzle (switch architecture): Exclusion NG 1) | 0.00878 | 0.00876 | –
GGACUCACUUGAGGAUAUCGAGUGGAAUACACUCGAGAAGGCAGGAAAACCUGAGGAUCACCCAGGUAAGAGUCCAAUAAUAAU [Same State NG1 - A3C, U17G Submission 3C] | – | – | apparent KD of MS2 coat protein ([3]; input ligand: FMN 200 uM): 0.0171 µM; apparent KD of MS2 coat protein ([3]; input ligand: none): 0.0179 µM
GGCCGGCAGCUAGGAUAUGGGCGGUCACAUGAGGAUCACCCAUGUCAACAUCAAAACCAGAUUAACCAGAAGGAGCUGCGAGUU [Arza] | – | – | apparent KD of MS2 coat protein ([3]; input ligand: FMN 200 uM): 1.23 µM; apparent KD of MS2 coat protein ([3]; input ligand: none): 0.0276 µM
GGUCCAACAUGAGGAUAUGGCACCUUAUUGGUGCCAGAAGGCGUGUCUAUAGACAUGAGGAUCACCCAUGUAAUAAAUUGGACC [SameState #22 NG1] | – | – | apparent KD of MS2 coat protein ([3]; input ligand: FMN 200 uM): 0.0454 µM; apparent KD of MS2 coat protein ([3]; input ligand: none): 0.796 µM
GGUCGACCUCAAGGAUAUGGACUGCUUUGCAGUCCAGAAGGUGAGGAUCACCCACCUACGGUCAGGUUUCUGACCGAUCGACCU [#AddUracilToBrourdLoops 2 - Jieux - Exclusion NG1] (puzzle (switch architecture): Exclusion NG 1) | 0.0792 | 0.0142 | –
GGUCGACCUCAAGGAUAUGGACUGCUUUGCAGUCCAGAAGGUGAGGAUCACCCAUCUACGGUCAGGUUUCUGACCGAUCGACCU [#AddUracilToBrourdLoops 6 - Jieux - Exclusion NG1] (puzzle (switch architecture): Exclusion NG 1) | 0.26 | 0.282 | –
GUAGCAUUCUGAGGAUAUUCAUACCGGAAACGGACAUGAGGAUCACCCAUGUGGCGAAAGCCUUGGGAGAAGGCAGUAUGCUAC [#DoubleMagnetSystem - Xeonanis 25 9 - Original] (puzzle (switch architecture): Same State NG 2) | 0.00921 | 0.247 | –
UAAAUAAAUCCUAGAGGAUCACCCUAGGAUAUGAGGCUGCACCUCGGAUAAUCCGAGGUGCAGCCUCAGAAGGAGGGUAAUAAA [#SharedSequence - SLExNG3: 1-2] (puzzle (switch architecture): Small Loop Exclusion NG 3) | 0.0431 | 0.0144 | –
UAGAAGCUCACAGGAUAUCAGUAUGCGCGAUCUAACGCAUUAAUGAACUGCUGAGAAGGGUGAGACAUGAGGAUCACCCAUGUA [Enesraadi] (puzzle (switch architecture): Small Loop Same State NG 1) | 0.395 | 0.236 | –
UAUAUAUAAUAUAUUAACAUGAGGAUCACCCAUGUCGCUAGACAGGAUAUAUUUAAUAUUAUUAAGUAGAAGGGUCAUAUAAUU [LRO007_SS NG 3] | – | – | apparent KD of MS2 coat protein ([3]; input ligand: FMN 200 uM): 0.0774 µM; apparent KD of MS2 coat protein ([3]; input ligand: none): 0.0786 µM
UCAUAAUAGAUCCUAUUUAUCUACAUGAGGAUCACCCAUGUGCAGGAUAUGCUAAAAUUAAAAUAGCAGAAGGGCAAUUUCAGC [JR_ExcNG3_Sub013] | – | – | apparent KD of MS2 coat protein ([2]; input ligand: FMN 200 uM): 0.359 µM; apparent KD of MS2 coat protein ([2]; input ligand: none): 0.0943 µM
UCGUGUUUAACAGGAUAUCCUCAACGACACAUGAGGAUCACCCAUGUUCGGAGCCAAAUGGCUUAGGAGAAGGGUUAGAAACAA [Isceenvere] | – | – | apparent KD of MS2 coat protein ([3]; input ligand: FMN 200 uM): 0.0758 µM; apparent KD of MS2 coat protein ([3]; input ligand: none): 0.701 µM
UGGUAUAAGGGCAUUACACAUGAGGAUCACCCAUGUACGUUAGAGGAUAUGCAUUCCAGUCGAACGUAGAAGGUUAGAGAAGGG [Morebubblesahh#8abcdefghij] | – | – | apparent KD of MS2 coat protein ([2]; input ligand: FMN 200 uM): 0.15 µM; apparent KD of MS2 coat protein ([2]; input ligand: none): 0.113 µM
UUCUGUGCCCAAAGUUUAAGCACAUGAGGAUCACCCAUGUGAAAGGAUAUGUGGCAUGUAAUGUUAUAGAAGGUUCACAAUCAA [Esadi] | – | – | apparent KD of MS2 coat protein ([2]; input ligand: FMN 200 uM): 0.0239 µM; apparent KD of MS2 coat protein ([2]; input ligand: none): 0.0158 µM
UUUGGGAGCACAGGAUAUGGCGCCUCGGAGGCGCCAGAAGGGUGAUUCUGUUGGUGGCCACAUGAGGAUCACCCAUGUGCCUCC [Rienorarve] | – | – | apparent KD of MS2 coat protein ([3]; input ligand: FMN 200 uM): 0.0192 µM; apparent KD of MS2 coat protein ([3]; input ligand: none): 0.0159 µM

Reference: the supplement of paper PMC9170038
